The source of these data is publication PMC10683072 (2023).

The target of test [1] is T1, KQTSV peptide.
T1 chain: KQTSV
Description: diffusion lag time measurement with labeled peptide (Figure S12).

The target in test [2] is T2, KQTSV peptide (tandem dimer of PDZ3).
T2 chain: KQTSV
The test is described as above.

B1: PDZ3 PDZ3 (protein)
chain: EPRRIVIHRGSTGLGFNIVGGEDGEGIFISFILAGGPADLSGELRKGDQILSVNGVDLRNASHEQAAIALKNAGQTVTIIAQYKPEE
What is called Kd is a measure of binding affinity in units of concentration. Low readings indicate tighter binding, high ones weaker binding. Turning to B1, in the test with KQTSV peptide [1], the Kd is 670 nM.

B2: 2xPDZ3 (two tandem repeats of PDZ3) PDZ3 (protein)
chain: B1 chain
B2: binding in the test with KQTSV peptide [2] was characterised by a dissociation constant (Kd) of 680 nM.
